Laboratory results: patent US20160102367A1 (TRUSTEES OF COLUMBIA UNIVERSITY IN THE CITY OF NEW YORK, published 2016)
Non-standard residues stand in square brackets, D forms with d. No end group written: not given here. *: point of attachment. Biotin = O=C1N[C@H]2[C@H](CS[C@H]2CCCCC(=O)*)N1; pY = N[C@@H](Cc1ccc(OP(=O)(O)O)cc1)C(=O)O

How the values were obtained:
Assay in all cases: streptavidin-biotin peptide pull down, anti-GST Western blot
GST-SH2-FYN Leu174Arg = molecular target: T1, GST-SH2-FYN Leu174Arg (Homo sapiens (Human), UniProt P06241 148-231)
T1 construct: also called GST-FYN-SH2 L174R; not shown: The N-terminal GST tag and the pGEX4-T1 linker
Procedure: (§1) GST-tagged FYN SH2 domain proteins were purified by binding them to immobilized glutathione Sepharose beads (Thermo scientific) and eluting them with 50 mM reduced Glutathione, 50 mM Tris, pH 7.4, 150 mM NaCl, 5% glycerol, 5 mM β-mercaptoethanol. Protein expression and purity were assessed by Coomassie staining. Binding assay was performed with Pull-Down Biotinylated Protein-protein Interaction Kit (Thermo scientific) according to the manufacturer's instructions using an amino acid 527-537 FYN biotinylated peptide (biotin-[…])(SEQ ID NO: 1); an amino acid 527-537 pY531 FYN biotinylated peptide (biotin-TEPQpYQPGENL)(SEQ ID NO: 2) and an amino acid 527-537 […] FYN biotinylated peptide (biotin-[…])(SEQ ID NO: 3) (Anaspec Inc). Synthetic biotinylated peptides were incubated with purified GST-FYN SH2 domain, mutant FYN SH2 domain or GST alone for 1 h at 4° C. Interacting proteins were resolved on 10% SDS-polyacrylamide gel electrophoresis (SDS-PAGE) and transferred to a PVDF membrane and subjected to Western blot with an anti-GST antibody.
(§2) In addition, structure model analysis of FYN and FYN mutant proteins further supported this hypothesis. (See FIG. 4C which is a molecular ribbon representation of wild type FYN protein structure showing the positioning of the FYN SH2 domain and the C terminal Tyr531 phosphosite and FIG. 4D which illustrates structure modeling of FYN Tyr531His, FYN Arg176Cys and FYN Leu174Arg mutant proteins.) The interaction between GST-FYN-SH2 recombinant proteins and biotinylated C-terminal FYN peptides encompassing the position Tyr531 was analyzed. In these assays, wild type GST-FYN-SH2 was effectively pulled down with a Tyr531 phosphopeptide, but not with the corresponding unphosphorylated sequence or with a peptide containing a Tyr531His substitution. […]

GST-SH2-FYN Arg176Cys = molecular target: T2, GST-SH2-FYN Arg176Cys (Homo sapiens (Human), UniProt P06241 148-231)
T2 construct: also called GST-FYN-SH2 R176C; not shown: The N-terminal GST tag and the pGEX4-T1 linker
Procedure: as §1, §2

[1] = molecular target: T3, GST-FYN-SH2 (wild type FYN SH2 domain, codons 148-231, N-terminal GST tag) (UniProt P06241 148-231)
T3 construct: range 148-231; Expressed in E. coli Rosetta 2(DE3) and purified on glutathione Sepharose; also called GST-SH2-FYN; GST-FYN SH2 domain; not shown: N-terminal GST tag from the pGEX4-T1 vector
Procedure: as §1, §2

T1 sequence (P06241 148-231 L174R limits assumed): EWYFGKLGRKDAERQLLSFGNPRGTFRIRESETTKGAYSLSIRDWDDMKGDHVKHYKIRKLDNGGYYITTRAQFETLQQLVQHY
T3 sequence (P06241 148-231): as the sequence (P06241 148-231 L174R limits assumed) above, with R27L counted along it
T2 sequence (P06241 148-231 R176C limits assumed): as the sequence (P06241 148-231 L174R limits assumed) above, with R27L, R29C counted along it

binding result (GST-SH2-FYN Leu174Arg) | binding result (GST-SH2-FYN Arg176Cys) | binding result [1] | Binder
no binding | no binding | – | Biotin-TEPQ[pY]QPGENL (Synthetic peptide (Anaspec Inc); also called Tyr531 phosphopeptide; P-Tyr531 FYN C-terminal peptide) [amino acid 527-537 pY531 FYN biotinylated peptide (biotin-TEPQpYQPGENL)]
– | – | no binding | Biotin-TEPQHQPGENL (also called mutant Tyr531His FYN C-terminal peptide) [amino acid 527-537 Y51H FYN biotinylated peptide (biotin-TEPQHQPGENL)]
